Data on one substance can be found in patent US5849885.

For the assay, the target named is casein fraction of whole cow milk. As to the kind of experiment: competitive inhibition RIA of bLF in the casein pellet after centrifugation of whole cow milk, no addition (mean + SD, n=10); the same table gives 4 with +0.4M NaCl and 32 after acid precipitation.

“bovine lactoferrin (from UniProt P24627)”: the % of total bLF found in the casein fraction turned out to be 21%.
